The text below walks through data of patent US20020039776.

This data set relates to free histones (mixture of H1, H3, H2B, H2A and H4; Boehringer Mannheim).

Sequence of GST-EZH2(382-747) (chain, as listed by the source): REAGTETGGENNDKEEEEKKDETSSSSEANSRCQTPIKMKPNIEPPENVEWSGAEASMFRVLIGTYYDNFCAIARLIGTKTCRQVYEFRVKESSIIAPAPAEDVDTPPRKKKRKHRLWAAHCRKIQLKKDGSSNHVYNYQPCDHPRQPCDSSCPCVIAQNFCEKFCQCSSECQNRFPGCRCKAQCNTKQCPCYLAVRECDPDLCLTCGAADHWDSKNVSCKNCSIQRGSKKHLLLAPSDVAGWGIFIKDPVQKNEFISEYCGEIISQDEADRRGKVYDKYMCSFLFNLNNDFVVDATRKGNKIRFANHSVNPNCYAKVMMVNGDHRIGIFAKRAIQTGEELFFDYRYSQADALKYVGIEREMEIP

As to GST-Suv39h2(157-477), the HMTase activity result is “The SU(VAR)3-9 family members assayed, SUV39H1, Suv39h2 and CLR4, displayed HMTase activity”.

Regarding GST-HRX(3643-3969), the HMTase activity result is “had undetectable HMTase activity towards free histones”.

Turning to GST-EZH2(382-747), the HMTase activity result is recorded as “had undetectable HMTase activity towards free histones”.
